Results published in paper PMC4245959, “Molecular recognition of RhlB and RNase D in the Caulobacter crescentus RNA degradosome” (Nucleic Acids Research, 2014).

B1: C. crescentus RNase E catalytic domain, residues 1–575, N-terminally 6xHis tagged (domain or fragment, Caulobacter crescentus, UniProt Q9A749 1-575, looked up)
chain: MSKKMLIDAAHAEETRVVVVDGTRVEEFDFESQTRKQLRGNIYLAKVTRVEPSLQAAFIEYGGNRHGFLAFNEIHPDYYQIPVADREALMRDDSGDDEDDTPISRRASGGDDEDDVNGGDRAVDDDDDDVEEELARRKRRLMRKYKIQEVIRRRQIMLVQVVKEERGNKGAALTTYLSLAGRYGVLMPNTARGGGISRKITAVTDRKRLKSVVQSLDVPQGMGLIVRTAGAKRTKAEIKRDYEYLLRLWENIRENTLHSIAPALIYEEEDLVKRAIRDMYDKDLDGIWVEGDAGYKEARDFMRMLMPSQAKKVFNYRDPTPLFVKNKIEDHLAQIYSPVVPLRSGGYLVINQTEALVAIDVNSGKATRERNIEATALKTNCEAAEEAARQLRLRDLAGLIVIDFIDMDEAKNNRTVEKVLKDALKDDRARIQMGKISGFGLMEISRQRRRTGVLEGTTHVCEHCEGTGRVRSVESSALAALRAVEAEALKGSGSVILKVSRSVGLYILNEKRDYLQRLLTTHGLFVSVVVDDSLHAGDQEIERTELGERIAVAPPPFVEEDDDFDPNAYDDEEEE
notes: tetramer by AUC; also called CcNTD
B2: recombinant RNase D with an N-terminal hexa-histidine tag (enzyme, Caulobacter crescentus (CB15), UniProt Q9A7L8 1-389, looked up)
chain: MKLITTTAELAAFCNGLAGEPFVAVDTEFMRETTYWPKLCLIQVASPTQEAVIDPLADNIDLEPLLVVMRDERILKVFHAARQDVEIFNNLKAMPKPLFDTQVAGMAAGFGEQIAYDALVRQMLRIEIDKSSRFTDWARRPLTDAQLSYALADVTHLAKLFPILRERLETSGRLAWVEEEMTAISDPAAYDVDPEKAWRRLRPRKTAPKYLAVFKAVAAWRERTAQNRDQPRGRILKDEAIDELATQTPGNLEALNNLRGVPKGFGGSKFGPDLLAAIKDALADPEGYAPVVDKPGPPPPQNAGAVVELLKVLLKARAEEAGVASKLIATVSDLEKIAADDNATTPALTGWRREAFGSDALKIKRGELALVLDGARVRVVEVRRAPKND
notes: ribonuclease D; the RNase D gene (cc1704) amplified from C. crescentus (CB15) genomic DNA into pETDuet-1; also called 6xHis-tagged RNase D; not shown: His6, N-terminal, kept
B3: recombinantly expressed and purified RhlB (enzyme, Caulobacter crescentus, UniProt Q9A779 1-517, looked up)
chain: MTEFTDLGLSPTTLQAVADTGYTTATPIQAQAIPVALAGQDVLGIAQTGTGKTAAFTLPLIDRLQSGRAKARMPRALVIAPTRELADQVAASFEKYAKGTKLSWALLIGGVSFGDQEKKLDRGVDVLIATPGRLLDHFERGKLLMTGVQFLVVDEADRMLDMGFIPDIERIFKMTPPKKQTLFFSATMPPEITRLTKQFLRDPVRIEVARPATTNANITQLLVKVPSSDPKAKRLALRALIEKAGIETGIVFCNRKTEVDIVAKSLKVHGYDAAPIHGDLDQTQRMKTLADFRSGALKILVASDVAARGLDIPAVSHVFNYDVPHHADDYVHRIGRTGRAGRTGITYMLVTPADDKGFDKVIKLIGSTPDEEKLDLDYSNAVTVKREGDRKRGGRDRDRGERGERSERPARGRGRGRERAEETVEAPAEAVAEIVDTPAMAEERPARERRPRREREPKAAAPAPTAVEAERPARAERPERPVRGVQPVRDRDDDDRRVVGFGSDVPAFLARPPRGAK
notes: DEAD-box RNA helicase RhlB (cc1847) of Caulobacter crescentus; monomeric in solution; source: recombinantly expressed and purified

What was measured:
[1] = target: fragment of C. crescentus RNase E containing the S1 and 5′-sensor sub-domains, residues 1–274 (Caulobacter crescentus); test: AUC; sedimentation velocity of the co-expressed, co-purified CcNTD(1–274)–RhlB complex at 2 mg/ml in 20-mM Tris pH 7.5, 200-mM NaCl, 20°C, 50 000 rpm
[2] = target: the molecule itself; test: AUC; sedimentation velocity, CcNTD(1–575) alone at 2 mg/ml in NTD buffer, 20°C, 40 000 rpm
[3] = target: the molecule itself; test: AUC; recombinant RNase D alone; single species of 85.9 kDa
[4] = target: B1; test: AUC; sedimentation velocity of the SEC fractions of the CcNTD(1–575)–RhlB complex; continuous molar mass distribution; conditions: both partners purified

Molecule “RhlB co-expressed with CcNTD_(1–274) (enzyme)” has a stoichiometry N [1] of 1.

In the case of B1, the “stoichiometry N” value [2] is reported as 4.

For B2, the “stoichiometry N” value [3] was 2.

In the case of B3, the “stoichiometry N” value [4] is reported as 2 RhlB monomers per CcNTD_(1–575) tetramer.
